The data set concerns G-protein beta/gamma subunits (Gβγ).

Turning to “p110g/SVP4b heterodimer (GFP-fusion tagged p110gamma co-expressed with SVP4b in SF21 cells)”, the “fold stimulation of 32P incorporation into PIP3 in the presence of Gβγ over that in its absence” value is recorded as “a 9.4 fold stimulation of ^32P incorporation into PIP3 over that seen in the absence of Gβγ was seen with the p110g/SVP4b heterodimer” and the pmol incorporation of 32P into PIP3, Plus Gβγ turned out to be 10.3 pmol.

For “p110g/p101 heterodimer (GFP-fusion tagged p110gamma co-expressed with full length p101 in SF21 cells)”, the “fold stimulation of 32P incorporation into PIP3 in the presence of Gβγ over basal activity” value was “the p101/p101 heterodimer produced a 4.6 fold stimulation over basal activity in the presence of Gβγ” and the pmol incorporation of 32P into PIP3, Plus Gβγ stood at 13.5 pmol.

Source of the values: patent publication US20010023068.
